Among the data in article PMC9342896 are 6xCME luciferase reporter gene activity compared with WT SIM2s values, retold here.

This experiment concerns the target aryl hydrocarbon nuclear receptor translocator 2 (ARNT2), in T-REx293 lysate (human (endogenous in T-REx293)) (UniProt Q9HBZ2).
Sequence of UniProt Q9HBZ2 (Q9HBZ2 whole entry): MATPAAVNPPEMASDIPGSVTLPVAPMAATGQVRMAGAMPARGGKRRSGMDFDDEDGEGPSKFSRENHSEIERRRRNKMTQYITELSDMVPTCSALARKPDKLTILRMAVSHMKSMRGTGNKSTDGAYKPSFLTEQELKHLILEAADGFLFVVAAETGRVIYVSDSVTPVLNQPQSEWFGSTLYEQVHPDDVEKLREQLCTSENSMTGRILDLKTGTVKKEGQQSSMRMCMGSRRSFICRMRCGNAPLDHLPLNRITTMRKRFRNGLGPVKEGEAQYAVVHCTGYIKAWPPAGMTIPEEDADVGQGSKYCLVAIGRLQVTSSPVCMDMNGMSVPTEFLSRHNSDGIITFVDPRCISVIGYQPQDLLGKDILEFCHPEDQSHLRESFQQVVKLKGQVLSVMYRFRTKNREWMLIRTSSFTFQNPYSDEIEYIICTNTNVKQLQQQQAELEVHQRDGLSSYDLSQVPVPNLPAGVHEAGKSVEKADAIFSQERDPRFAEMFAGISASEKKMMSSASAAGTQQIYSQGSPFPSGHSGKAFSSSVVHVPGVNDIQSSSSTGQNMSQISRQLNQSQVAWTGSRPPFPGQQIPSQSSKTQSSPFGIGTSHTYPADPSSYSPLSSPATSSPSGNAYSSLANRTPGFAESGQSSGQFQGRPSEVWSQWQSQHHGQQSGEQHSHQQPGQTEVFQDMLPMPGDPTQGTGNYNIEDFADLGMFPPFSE

In turn, “SIM2s-2xHA-3xFLAG W306R variant (natural protein)” showed a 6xCME luciferase reporter gene activity compared with WT SIM2s of 50 % reduction.
